Test results from publication PMC8170832.

Target: endogenous HSF1 (heat shock factor 1), mouse embryonic fibroblasts (mouse (endogenous in MEFs)) (UniProt P38532)
Experiment: co-IP

UniProt P38532, sequence (P38532 whole entry): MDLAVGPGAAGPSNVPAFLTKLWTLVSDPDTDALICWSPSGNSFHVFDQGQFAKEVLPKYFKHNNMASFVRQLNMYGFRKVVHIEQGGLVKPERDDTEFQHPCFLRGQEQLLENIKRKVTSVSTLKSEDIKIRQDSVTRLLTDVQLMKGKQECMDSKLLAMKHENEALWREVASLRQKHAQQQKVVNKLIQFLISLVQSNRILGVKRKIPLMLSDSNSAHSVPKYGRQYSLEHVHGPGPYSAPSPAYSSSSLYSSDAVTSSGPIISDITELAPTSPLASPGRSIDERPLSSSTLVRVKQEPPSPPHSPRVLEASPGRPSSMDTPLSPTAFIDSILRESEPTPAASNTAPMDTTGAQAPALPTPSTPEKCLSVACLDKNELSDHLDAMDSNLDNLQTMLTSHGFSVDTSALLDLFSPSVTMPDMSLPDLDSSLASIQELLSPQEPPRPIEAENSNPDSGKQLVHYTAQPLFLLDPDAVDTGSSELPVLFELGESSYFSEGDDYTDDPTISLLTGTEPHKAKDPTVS

Substance: endogenous AMPK (AMP-activated protein kinase), mouse embryonic fibroblasts (from UniProt Q5EG47 1-559; Q9R078 1-270; Q91WG5 1-566) (complex)
- percent of total cellular AMPKα depleted by IP of HSF1: 66%

Substance: endogenous phospho-AMPKα (Thr172), mouse embryonic fibroblasts (from UniProt Q5EG47 1-559; Q9R078 1-270; Q91WG5 1-566) (complex)
- percent of phospho-AMPKα depleted by IP of HSF1: 25%
